The source of these data is patent US20250051427A1, “METHODS OF USING AN ANTI-AMYLOID BETA PROTOFIBRIL ANTIBODY AND ANTI-TAU ANTIBODY” (published 2025).

Assay [1] addresses T1, MTBR-tau (microtubule binding region tau) in CSF (Homo sapiens). Description: E2814-bound and free MTBR-tau in CSF after a single E2814 infusion of 3 mg/kg.
Assay [2] addresses T1, MTBR-tau (microtubule binding region …). Description: E2814-bound and free MTBR-tau in CSF after a single E2814 infusion of 30 mg/kg.
Assay [3] shares this target. Description: E2814-bound and free MTBR-tau in CSF after a single E2814 infusion of 10 mg/kg.

B1: E2814 (antibody, V domains shown)
VH: EVQLLESGGGLVQPGGSLRLSCAASGYTFTTYWITWVRQAPGKGLEWVSDIYPGSSISNYNEKFKSRFTISVDNSKNTLYLQMNSLRAEDTAVYYCAREDGYDAWFAYWGQGTLVTVSS
VL: DIQMTQSPSSLSASVGDRVTITCRSSQSILHSNGNTYLEWYQQKPGKAPKLLISKVSNRFSGVPSRFSGSGSGTDFTLTISSLQPEDFATYYCFQGSHVPFTFGQGTKLEIKR
With B1, the results for the “target engagement (TE), fraction (%) of bound MTBR-tau relative to total MTBR-tau” value in assay [1], in assay [2] and in assay [3] were roughly 26%, roughly 60% and roughly 45%, respectively.
